Positions count from the first letter of the chain named.
Assays:
ヒトFcRn = molecular target: T1, ヒトFcRn (human, UniProt P55899 24-290; P61769 21-119, limits assumed); experiment: SPR, figure legends of Figs. 3-11
T1 construct: also called human FcRn; complex of human FcRn and human beta-2 microglobulin

ヒトFcγRIIa (R) [1] = molecular target: T2, ヒトFcγRIIa (R) (human, UniProt P12318 34-217); experiment: SPR, figure legend (Fig. 4)
T2 construct: extracellular domain; N-glycans trimmed with Endo F1/F2/F3 for the crystals; also called FcγRIIa R型
T2 sequence (looked up): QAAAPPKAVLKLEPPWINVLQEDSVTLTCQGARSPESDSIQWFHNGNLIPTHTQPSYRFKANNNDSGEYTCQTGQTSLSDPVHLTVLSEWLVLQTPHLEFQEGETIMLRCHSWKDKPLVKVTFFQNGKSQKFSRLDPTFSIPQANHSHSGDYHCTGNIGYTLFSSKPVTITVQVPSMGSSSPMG

マウスFcγRI [2] = molecular target: T3, マウスFcγRI (mouse, UniProt P26151 25-297, limits assumed); experiment: SPR, Biacore; antibody captured on immobilised human FcRn, FcγR as analyte, pH 7.4, 25C
T3 construct: also called mouse FcγRI
T3 sequence (looked up): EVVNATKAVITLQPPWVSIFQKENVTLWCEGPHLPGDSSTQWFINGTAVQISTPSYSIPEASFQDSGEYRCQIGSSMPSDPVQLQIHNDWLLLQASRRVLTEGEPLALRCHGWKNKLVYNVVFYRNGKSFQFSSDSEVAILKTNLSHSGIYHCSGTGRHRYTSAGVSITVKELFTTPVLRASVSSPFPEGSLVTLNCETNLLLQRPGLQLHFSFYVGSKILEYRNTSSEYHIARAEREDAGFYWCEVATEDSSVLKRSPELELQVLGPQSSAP

マウスFcγRIIb [3] = molecular target: T4, マウスFcγRIIb (mouse, UniProt P08101 30-210, limits assumed); experiment: as above
T4 construct: also called mouse FcγRIIb
T4 sequence (looked up): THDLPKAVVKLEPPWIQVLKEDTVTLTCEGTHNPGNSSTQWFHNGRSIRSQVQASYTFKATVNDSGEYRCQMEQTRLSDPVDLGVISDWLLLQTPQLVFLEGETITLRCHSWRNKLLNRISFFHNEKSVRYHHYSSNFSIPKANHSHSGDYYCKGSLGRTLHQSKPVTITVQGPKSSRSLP

マウスFcγRIII [4] = molecular target: T5, マウスFcγRIII (mouse, UniProt P08508 31-215, limits assumed); experiment: as above
T5 construct: also called mouse FcγRIII
T5 sequence (looked up): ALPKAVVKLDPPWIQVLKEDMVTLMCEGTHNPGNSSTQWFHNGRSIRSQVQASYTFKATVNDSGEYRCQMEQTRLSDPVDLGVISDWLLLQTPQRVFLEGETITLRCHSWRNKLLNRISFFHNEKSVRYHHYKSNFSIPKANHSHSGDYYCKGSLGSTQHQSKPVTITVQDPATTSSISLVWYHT

ヒトFcγRIIb [5] = molecular target: T6, ヒトFcγRIIb (human, UniProt P31994 43-217); experiment: SPR, figure legend (Fig. 6)
T6 construct: extracellular domain; for the crystals it was expressed with kifunensine and its N-glycans trimmed with Endo F1; also called FcγRIIb細胞外領域
T6 sequence (looked up): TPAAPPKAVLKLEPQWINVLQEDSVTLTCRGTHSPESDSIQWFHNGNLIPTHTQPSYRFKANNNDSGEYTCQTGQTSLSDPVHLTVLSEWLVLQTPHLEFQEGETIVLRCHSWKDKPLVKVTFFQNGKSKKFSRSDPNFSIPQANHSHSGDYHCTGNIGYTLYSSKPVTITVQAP

ヒトFcγRIIa (H) = molecular target: T7, ヒトFcγRIIa (H) (human, UniProt P12318 34-217); experiment: SPR, figure legend (Fig. 5)
T7 construct: extracellular domain; also called FcγRIIa H型
T7 sequence (looked up): T2 sequence (looked up) with R134H

ヒトFcγRIIIa (F) = molecular target: T8, ヒトFcγRIIIa (F) (human, UniProt P08637 17-208); experiment: SPR, figure legend (Fig. 7)
T8 construct: extracellular domain
T8 sequence (P08637 17-208): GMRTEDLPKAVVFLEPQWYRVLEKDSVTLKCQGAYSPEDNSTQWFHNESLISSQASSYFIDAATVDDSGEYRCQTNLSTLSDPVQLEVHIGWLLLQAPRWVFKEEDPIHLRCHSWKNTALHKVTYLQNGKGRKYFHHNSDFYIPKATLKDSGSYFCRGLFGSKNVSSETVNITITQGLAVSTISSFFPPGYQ

ヒトFcγRIa = ヒトFcγRIa (human, UniProt P12314 16-292); experiment: SPR, figure legend (Fig. 3)
ヒトFcγRIa, sequence (P12314 16-292): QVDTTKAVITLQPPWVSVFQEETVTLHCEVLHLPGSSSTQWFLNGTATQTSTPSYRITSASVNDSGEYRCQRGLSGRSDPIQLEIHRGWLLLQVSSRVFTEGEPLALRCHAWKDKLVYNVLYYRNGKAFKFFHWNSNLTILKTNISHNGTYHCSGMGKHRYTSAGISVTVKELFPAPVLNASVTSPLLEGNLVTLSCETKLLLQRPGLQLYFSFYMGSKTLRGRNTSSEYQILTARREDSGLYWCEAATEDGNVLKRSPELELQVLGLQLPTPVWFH

マウスFcγRI [6] = molecular target: T3, マウスFcγRI; experiment: SPR, Biacore; antibody captured on immobilised mouse FcRn, FcγR as analyte, pH 7.4, 25C
マウスFcγRIIb [7] = molecular target: T4, マウスFcγRIIb; experiment: as above
マウスFcγRIII [8] = molecular target: T5, マウスFcγRIII; experiment: as above
ヒトFcγRIIa (R) [9] = molecular target: T2, ヒトFcγRIIa (R); experiment: SPR, KD; reference IL6R-BP230/IL6R-L
ヒトFcγRIIb [10] = molecular target: T6, ヒトFcγRIIb; experiment: SPR, KD; reference IL6R-BP230/IL6R-L
ヒトFcγRIIb [11] = molecular target: T6, ヒトFcγRIIb; experiment: SPR, KD; reference IL6R-B3/IL6R-L; the lowest of the named variants
ヒトFcγRIIb [12] = molecular target: T6, ヒトFcγRIIb; experiment: SPR, KD; reference IL6R-B3/IL6R-L; the highest of the named variants
ヒトFcγRIIb [13] = molecular target: T6, ヒトFcγRIIb; experiment: SPR; KD for FcγRIIaH divided by KD for FcγRIIb

T1 sequence (P55899 24-290 limits assumed, chain 1 of 2): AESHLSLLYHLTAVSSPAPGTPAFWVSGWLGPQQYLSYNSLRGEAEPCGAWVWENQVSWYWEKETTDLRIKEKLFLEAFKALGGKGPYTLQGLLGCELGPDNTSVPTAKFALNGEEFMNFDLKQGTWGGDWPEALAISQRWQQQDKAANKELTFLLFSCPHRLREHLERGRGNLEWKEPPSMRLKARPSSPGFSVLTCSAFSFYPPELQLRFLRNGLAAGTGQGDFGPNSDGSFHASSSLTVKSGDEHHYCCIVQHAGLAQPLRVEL
T1 sequence (P61769 21-119 limits assumed, chain 2 of 2): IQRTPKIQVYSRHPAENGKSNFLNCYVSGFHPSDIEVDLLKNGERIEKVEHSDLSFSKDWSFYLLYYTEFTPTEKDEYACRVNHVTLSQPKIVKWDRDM

B1: Fv4-IgG1-F157 (antibody)
heavy: QVQLQESGPGLVKPSETLSLTCAVSGHSISHDHAWSWVRQPPGEGLEWIGFISYSGITNYNPSLQGRVTISRDNSKNTLYLQMNSLRAEDTAVYYCARSLARTTAMDYWGEGTLVTVSSASTKGPSVFPLAPSSKSTSGGTAALGCLVKDYFPEPVTVSWNSGALTSGVHTFPAVLQSSGLYSLSSVVTVPSSSLGTQTYICNVNHKPSNTKVDKKVEPKSCDKTHTCPPCPAPELLGGPSVFLFPPKPKDTLMISRTAEVTCVVVDVSHEDPEVKFNWYVDGVEVHNAKTKPREEQYNSTYRVVSVLTPLHQDWLNGKEYKCKVSNKALPAPIEKTISKAKGQPREPQVYTLPPSRDELTKNQVSLTCLVKGFYPSDIAVEWESNGQPENNYKTTPPVLDSDGSFFLYSKLTVDKSRWQQGNVFSCSVLHEALHYHYTQKSLSLSP
light: DIQMTQSPSSLSASVGDSVTITCQASTDISSHLNWYQQKPGKAPELLIYYGSHLLSGVPSRFSGSGSGTDFTFTISSLEAEDAATYYCGQGNRLPYTFGQGTKVEIERTVAAPSVFIFPPSDEQLKSGTASVVCLLNNFYPREAKVQWKVDNALQSGNSQESVTEQDSKDSTYSLSSTLTLSKADYEKHKVYACEVTHQGLSSPVTKSFNRGEC
notes: also called VH3-IgG1-F157/VL3-CK
B1: binds (ヒトFcRn); binds (ヒトFcγRIIa (R) [1]); binds (マウスFcγRI [2]). B1: binds (マウスFcγRIIb [3]); binds (マウスFcγRIII [4]); binds (ヒトFcγRIIb [5]). B1: binds (ヒトFcγRIIa (H)); binds (ヒトFcγRIIIa (F)); binds (ヒトFcγRIa).

B2: Fv4-IgG1-F20 (antibody)
heavy: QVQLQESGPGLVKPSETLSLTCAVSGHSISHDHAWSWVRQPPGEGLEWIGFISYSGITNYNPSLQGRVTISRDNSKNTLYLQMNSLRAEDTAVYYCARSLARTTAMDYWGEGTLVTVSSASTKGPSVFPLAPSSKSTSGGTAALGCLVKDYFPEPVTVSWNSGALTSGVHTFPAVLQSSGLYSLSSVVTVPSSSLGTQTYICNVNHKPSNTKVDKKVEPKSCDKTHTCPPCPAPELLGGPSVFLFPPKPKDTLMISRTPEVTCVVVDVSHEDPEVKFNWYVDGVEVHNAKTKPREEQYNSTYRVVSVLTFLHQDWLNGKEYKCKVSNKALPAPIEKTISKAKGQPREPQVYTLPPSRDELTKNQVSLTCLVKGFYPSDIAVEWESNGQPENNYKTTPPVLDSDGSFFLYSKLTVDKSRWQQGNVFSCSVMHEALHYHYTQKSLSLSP
light: B1 light
notes: also called VH3-IgG1-F20/VL3-CK
B2: binds (マウスFcγRI [6]); binds (マウスFcγRIIb [7]); binds (マウスFcγRIII [8]).

B3: IL6R-BP478/IL6R-L (antibody)
chain 1: QVQLQESGPGLVKPSETLSLTCAVSGHSISHDHAWSWVRQPPGEGLEWIGFISYSGITNYNPSLQGRVTISRDNSKNTLYLQMNSLRAEDTAVYYCARSLARTTAMDYWGEGTLVTVSSASTKGPSVFPLAPCSRSTSESTAALGCLVKDYFPEPVTVSWNSGALTSGVHTFPAVLQSSGLYSLSSVVTVPSSSLGTKTYTCNVDHKPSNTKVDKRVESKYGPPCPPCPAPDLLGDDSVFLFPPKPKDTLMISRTPEVTCVVVDVSDEDGEVKFNWYVDGVEVHNAKTKPREEQDNSTYRVVSVLTVLHQDWLNGKEYKCKVSNKALPRPIEKTISKAKGQPREPQVYTLPPSRDELTKNQVSLTCLVKGFYPSDIAVEWESNGQPENNYKTTPPVLDSDGSFFLYSKLTVDKSRWQQGNVFSCSVMHEALHNHYTQESLSLSP
chain 2: not shown
With B3 the “binding relative to IL6R-BP230/IL6R-L” value (ヒトFcγRIIa (R) [9]) was 0.9 fold and the “fold enhancement of binding against IL6R-BP230/IL6R-L” value (ヒトFcγRIIb [10]) was 1.1 fold.

B4: IL6R-BP495/IL6R-L (antibody)
chain 1: QVQLQESGPGLVKPSETLSLTCAVSGHSISHDHAWSWVRQPPGEGLEWIGFISYSGITNYNPSLQGRVTISRDNSKNTLYLQMNSLRAEDTAVYYCARSLARTTAMDYWGEGTLVTVSSASTKGPSVFPLAPSSKSTSGGTAALGCLVKDYFPEPVTVSWNSGALTSGVHTFPAVLQSSGLYSLSSVVTVPSSSLGTQTYICNVNHKPSNTKVDKKVEPKSCDKTHTCPPCPAPELLGDDSVFLFPPKPKDTLMISRTPEVTCVVVDVGEEDGEVKFNWYVDGVEVHNAKTKPREEQDNSTYRVVSVLTVLHQDWLNGKEYKCKVSNKALPRPIEKTISKAKGQPREPQVYTLPPSRDELTKNQVSLTCLVKGFYPSDIAVEWESNGQPENNYKTTPPVLDSDGSFFLYSKLTVDKSRWQQGNVFSCSVMHEALHNHYTQESLSLSP
chain 2: not shown
For B4, the “fold enhancement of binding, IL6R-B3/IL6R-L = 1” value (ヒトFcγRIIb [11]) was 321 fold.

B5: IL6R-BP489/IL6R-L (antibody)
chain 1: B4 chain 1 with E235D, V266I, G269A, P398M
chain 2: not shown
B5 was tested, and the “fold enhancement of binding, IL6R-B3/IL6R-L = 1” value (ヒトFcγRIIb [12]) was 3100 fold.

B6: IL6R-BP480/IL6R-L (antibody)
chain 1: B4 chain 1 with E235D, V268L, G269S, E271D, D298Y, R332A
chain 2: not shown
With B6 the “KD (IIaH)/KD (IIb)” value (ヒトFcγRIIb [13]) was 108 ratio.

B7: IL6R-BP426/IL6R-L (antibody)
chain 1: B4 chain 1 with E235D, G269A, E271D, D298Y
chain 2: not shown
With B7 the “KD (IIaH)/KD (IIb)” value (ヒトFcγRIIb [13]) was 8360 ratio.

B8: mPM1-mIgG1-mF3 (antibody)
heavy: DVQLQESGPVLVKPSQSLSLTCTVTGYSITSDHAWSWIRQFPGNKLEWMGYISYSGITTYNPSLKSRISITRDTSKNQFFLQLNSVTTGDTSTYYCARSLARTTAMDYWGQGTSVTVSSAKTTPPSVYPLAPGSAAQTNSMVTLGCLVKGYFPEPVTVTWNSGSLSSGVHTFPAVLQSDLYTLSSSVTVPSSTWPSETVTCNVAHPASSTKVDKKIVPRDCGCKPCICTVPEVSSVFIFPPKPKDVLYITLEPKVTCVVVDISKDDPEVQFSWFVDDVEVHTAQTQPREEQFNSTFRSVSELPIMHQDWLNGKEFKCRVNSAAFPAPIEKTISKTKGRPKAPQVYTIPPPKEQMAKDKVSLTCMITDFFPEDITVEWQWNGQPAENYKNTQPIMDTDGSYFVYSKLNVQKSNWEAGNTFTCSVLHEGLKFHHTEKSLSHSPGK
light: DIQMTQTTSSLSASLGDRVTISCRASQDISSYLNWYQQKPDGTIKLLIYYTSRLHSGVPSRFSGSGSGTDYSLTINNLEQEDIATYFCQQGNTLPYTFGGGTKLEIKRADAAPTVSIFPPSSEQLTSGGASVVCFLNNFYPKDINVKWKIDGSERQNGVLNSWTDQDSKDSTYSMSSTLTLTKDEYERHNSYTCEATHKTSTSPIVKSFNRNEC
notes: mouse IgG1; also called mPM1H-mIgG1-mF3/mPM1L-mk1
B8: no binding (マウスFcγRI [6]); binds (マウスFcγRIIb [7]); binds (マウスFcγRIII [8]).
